Assay results: patent US20220242939A1 (BIOARCTIC, published 2022)
Non-standard residues stand in square brackets, D forms with d. No end group written: not given here. Ahx = NCCCCCC(=O)O

T1: negative control peptide AATVGSLAGQPLQER-Acp-C (SEQ ID NO:53) conjugated to BSA (human, not fully specified (residue 17); printed as AATVGSLAGQPLQER-Acp-C; also: C-terminal Cys conjugated to BSA carrier)
T1 construct: BSA carrier; also called 192-206 BSA-conjugated peptide
T1 peptide: AATVGSLAGQPLQER[Ahx]C

T2: A199 N-terminal neo-epitope peptide AGQPLQ-Acp-C (SEQ ID NO:51) conjugated to BSA (human, not fully specified (residue 8); printed as AGQPLQ-Acp-C; also: C-terminal Cys conjugated to BSA carrier)
T2 construct: BSA carrier; also called A199-BSA peptide
T2 peptide: AGQPLQ[Ahx]C

T3: G200 N-terminal neo-epitope peptide GQPLQE-Acp-C (SEQ ID NO:50) conjugated to BSA (human, not fully specified (residue 8); printed as GQPLQE-Acp-C; also: C-terminal Cys conjugated to BSA carrier)
T3 construct: also called G200-BSA peptide; G200-peptide
T3 peptide: GQPLQE[Ahx]C

T4: L198 N-terminal neo-epitope peptide LAGQPL-Acp-C (SEQ ID NO:52) conjugated to BSA (human, not fully specified (residue 8); printed as LAGQPL-Acp-C; also: C-terminal Cys conjugated to BSA carrier)
T4 construct: BSA carrier; also called L198-BSA peptide
T4 peptide: LAGQPL[Ahx]C

T5: L198 N-terminal neo-epitope peptide LAGQPLQE-Acp-C (SEQ ID NO:54) conjugated to BSA (human, not fully specified (residue 10); printed as LAGQPLQE-Acp-C; also: C-terminal Cys conjugated to BSA carrier)
T5 construct: BSA carrier
T5 peptide: LAGQPLQE[Ahx]C


Columns and labels:
[1] = biological target: T6, His-tagged recombinant full-length ApoE4, 10xHIS-ApoE4(1-299) (human, UniProt P02649 19-317); experiment: direct ELISA
T6 construct: also called ApoE4-FL-HIS

[2] = biological target: T7, recombinant C-terminal ApoE fragment L198-HIS (ApoE-L198-H299-10xHIS) (human, UniProt P02649 216-317); experiment: direct ELISA, L198-HIS coated at 0.1 µM
T7 construct: also called L198-HIS fragment
Procedure, shortened: (§1)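 Antigens were coated overnight at 4 °C in PBS, then plates were blocked with protein-free blocker for 1 h. Purified mAbs in 3-fold serial dilutions from 3 μg/ml were bound for 2 h at room temperature, with anti-ApoE C-terminal E-8 as reference. TMB substrate development was stopped with H2SO4 and OD450 was read.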

[3] = biological target: T8, full-length ApoE in human brain extract from Alzheimer's disease patients (human, UniProt P02649 19-317); experiment: Western blot of AD brain RIPA 2% SDS extract; monoclonal antibody at 2 ug/ml as primary antibody
T8 construct: mature; Endogenous protein on Western blot or in solution (IP); also called ApoE full-length protein

[4] = biological target: T1, negative control peptide …; experiment: direct ELISA; proteins coated at 0.1 uM, BSA peptides at 1 ug/ml; antibody in 3-fold dilutions from 3000 ng/ml; blank reduced OD 450 nm
Description: (§2) Selectivity evaluation of purified monoclonal antibodies by direct ELISA: The direct ELISA described below was used to evaluate the binding selectivity of the purified monoclonal antibodies produced in Example 14.
(§3) The screening was performed according to standard ELISA protocols. Briefly, 1 μg/ml solutions of BSA-conjugated neo-epitope peptides and negative control peptide, and 0.1 μM recombinant C-terminal ApoE fragment and full-length ApoE (Abcam, cat. no. ab50243) were prepared by dilution in PBS. 50 μl/well were added to an ELISA half-area 96 well microtiter plate, and the plate was sealed with adhesive sealer and incubated over night at 4° C. After discarding the solution, the plates were blocked with 150 μl/well of protein-free blocking solution (Pierce) for 1 h at room temperature with shake (600-900 rpm). The plates were washed four times with washing buffer containing 0.28 mM NaH₂PO₄, 2.5 mM Na₂HPO₄, 150 mM NaCl, 0.1% TWEEN®-20 and 0.0075% Kathon CG. Purified monoclonal antibodies of interest were 3-fold serially diluted with a starting dilution at 3 μg/ml (mixed 1:2 with dilution buffer (PBS with 0.1% BSA and 0.05% TWEEN®-20)). An anti-ApoE C-terminal antibody was used as a reference antibody (ApoE E-8 mouse monoclonal, Santa Cruz Biotechnology, cat. no. sc-393302). 50 μl/well were added into the ELISA plates and incubated for 2 h at room temperature with shake (600-900 rpm). The plates were washed four times as described previously. […] After another wash (as described previously), 50 μl/well of K-Blue® aqueous substrate (Neogen) were added, and the reaction was stopped after 5-15 min with 50 μl/well of 0.5 M […]. The optical density at 450 nm was read using an ELISA reader (Tecan).

[5] = biological target: T2, A199 N-terminal neo-epitope peptide …; experiment: as above
Description: as §2, §3

[6] = biological target: T3, G200 N-terminal neo-epitope peptide …; experiment: as above
Description: as §2, §3

[7] = biological target: T9, recombinant full-length ApoE4 (aa 1-299; SEQ ID NO:45; Abcam cat. no. ab50243) (human, UniProt P02649 19-317); experiment: as above
T9 construct: Bought protein; also called recombinant ApoE4 full-length protein
Description: as §2, §3

[8] = biological target: T4, L198 N-terminal neo-epitope peptide …; experiment: direct ELISA, L198-BSA peptide coated at 1 µg/ml
Procedure, shortened: as §1

[9] = biological target: T5, L198 N-terminal neo-epitope peptide …; experiment: direct ELISA after limiting dilution
[10] = biological target: T3, G200 N-terminal neo-epitope peptide …; experiment: direct ELISA, target coated at 1 ug/ml, supernatant in 3-fold dilutions from 1000 ng/ml, OD 450 nm
Description: (§4) Selectivity evaluation by direct ELISA: The direct ELISA described below was used to evaluate the binding selectivity of generated monoclonal anti-ApoE antibodies with affinity for the N-terminal neo-epitope of C-terminal ApoE fragments starting at amino acid G200.
(§5) The screening was performed according to standard ELISA protocols. Briefly, 1 μg/ml solutions of N-terminal neo-epitope peptide (SEQ ID NO:50) conjugated to BSA, the recombinant C-terminal ApoE fragment G200-HIS (SEQ ID NO:48) and recombinant full-length ApoE4 (SEQ ID NO:45; Abcam; cat. no. ab50243) were prepared by dilution in PBS. 50 μl/well were added to an ELISA half-area 96 well microtiter plate. Then, the plate was sealed with adhesive sealer and incubated over night at 4° C. The plates were blocked with 150 μl/well of protein-free blocking solution (Pierce) for 1 h at room temperature with shake (600-900 rpm). The plates were washed four times with washing buffer containing 0.28 mM NaH₂PO₄, 2.5 mM Na₂HPO₄, 150 mM NaCl, 0.1% TWEEN®-20 and 0.0075% Kathon CG. Antibodies of interest were serially diluted 3-fold with a starting dilution at 1 μg/ml (mixed 1:1 with dilution buffer: PBS with 0.1% BSA and 0.05% TWEEN®-20) and incubated for 2 h at room temperature. The plates were washed four times as before. […] After another wash (as above), 50 μl/well of K-Blue® aqueous substrate (Neogen) were added, and the reaction was stopped after 5-15 min with 50 μl/well of 0.5 M […]. The optical density at 450 nm was read using an ELISA reader (Tecan). The optical density was plotted against the antibody concentration to generate concentration-response curves (FIG. 14).

[11] = biological target: T10, recombinant C-terminal ApoE fragment G200-HIS (ApoE-G200-H299-10xHIS) (human, UniProt P02649 218-317); experiment: as above
T10 construct: also called G200-HIS fragment
Description: as §4, §5

[12] = biological target: T9, recombinant full-length ApoE4 (aa …); experiment: as above
Description: as §4, §5

[13] = biological target: T8, full-length ApoE in human brain extract …; experiment: Western blot, human AD brain extract, hybridoma supernatant (data not shown for 21C3)
From the text: Selectivity evaluation and human target binding in Alzheimer's disease brain extracts by Western blot analysis: The Western blot analysis described below was used to evaluate selective binding of monoclonal antibodies with affinity for the N-terminal neo-epitope of ApoE fragments […], starting at G200, without binding to ApoE full-length protein, in human brain extracts from an Alzheimer's disease patient. Fresh frozen brain tissue from the Alzheimer's disease patient was homogenized in RIPA 2% SDS extraction buffer, followed by centrifugation at 16000×g for 1 h. The subsequent supernatant was subjected to standard protein concentration determination.
RIPA 2% SDS brain extract containing 80 μg total protein was mixed with 2×Laemmli sample buffer, boiled for 5 min at 95° C. and loaded onto SDS-PAGE gels (Bolt™ 12% Bis-Tris Plus 10 well, Thermo Fisher, cat. no. NW00120BOX). Gels were run for 30-40 min at 180 V, after which proteins were transferred from the gels to nitrocellulose membranes using the Trans-Blot® Turbo™ system (Bio-Rad). Membranes were blocked in Odyssey® blocking buffer for 1 h and incubated over night at room temperature with hybridoma supernatant diluted 1:1 in Odyssey® blocking buffer with 0.1% TWEEN®-20. […]

T9 sequence (P02649 19-317 C130R limits assumed): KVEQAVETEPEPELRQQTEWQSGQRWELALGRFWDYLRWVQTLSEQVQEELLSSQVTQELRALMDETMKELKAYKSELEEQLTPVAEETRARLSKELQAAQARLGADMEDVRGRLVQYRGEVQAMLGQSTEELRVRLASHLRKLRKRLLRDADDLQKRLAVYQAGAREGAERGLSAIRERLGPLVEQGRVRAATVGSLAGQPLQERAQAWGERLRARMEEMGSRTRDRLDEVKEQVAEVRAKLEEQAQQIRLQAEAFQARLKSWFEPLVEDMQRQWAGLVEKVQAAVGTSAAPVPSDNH
T8 sequence (P02649 19-317): as the sequence (P02649 19-317 C130R limits assumed) above, with R112C counted along it
T6 sequence (P02649 other isoform, or with tags, fused parts or gaps limits assumed): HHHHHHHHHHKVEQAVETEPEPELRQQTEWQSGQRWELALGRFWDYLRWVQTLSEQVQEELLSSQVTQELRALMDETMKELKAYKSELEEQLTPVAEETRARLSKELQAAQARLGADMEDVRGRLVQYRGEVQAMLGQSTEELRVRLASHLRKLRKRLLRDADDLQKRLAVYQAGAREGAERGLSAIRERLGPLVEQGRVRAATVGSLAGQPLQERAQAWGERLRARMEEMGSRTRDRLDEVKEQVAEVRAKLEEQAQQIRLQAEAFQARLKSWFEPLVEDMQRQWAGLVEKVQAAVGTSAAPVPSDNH
T10 sequence (P02649 other isoform, or with tags, fused parts or gaps limits assumed): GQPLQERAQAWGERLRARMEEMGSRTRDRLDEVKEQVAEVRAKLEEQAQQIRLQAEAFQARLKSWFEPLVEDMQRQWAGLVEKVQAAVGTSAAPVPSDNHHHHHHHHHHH
T7 sequence (P02649 other isoform, or with tags, fused parts or gaps limits assumed): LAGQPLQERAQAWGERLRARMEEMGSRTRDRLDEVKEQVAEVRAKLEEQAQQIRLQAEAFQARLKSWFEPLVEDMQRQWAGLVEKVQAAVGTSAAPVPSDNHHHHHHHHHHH

Binder | binding result [1] | EC50 [2] [ng/mL] | binding result [3] | binding result [4] | binding result [5] | binding result [6] | binding result [7] | EC50 [8] [ng/mL] | binding result [9] | EC50 (read off the curve) [10] [ng/mL] | EC50 (read off the curve) [11] [ng/mL] | binding result [12] | binding result [13]
6F4, monoclonal anti-L198 antibody (antibody, IgG1, V domains shown) VH: EVNLEESGGDLVQPGRSLKLSCVASGFTFSDYWMNWVRQSPEKGLEWVAQIRLKSDNYVTHYVESLKGRFTISRDDSRSCVYLQMNNLRAEDTGIYYCTGHILLRRRYFDVWGTGTTVTVSS VL: DIVMTQSQKFMSTSVGDRVSVTCEASQNVGTNVAWYQQKPGQSPKGLIYSASYRYSGVPDRFTGSGSGTDFTLTISTVQSEDLAEYFCHQFNTYPYTFGGGTTLEII | no binding (tested: 3 µg/ml) | 18.5 | no binding (tested: 2 ug/ml (text)) | no binding (tested: 3000 ng/ml) | no binding (tested: 3000 ng/ml) | no binding (tested: 3000 ng/ml) | no binding (tested: 3000 ng/ml) | 13.5 | binds | – | – | – | –
21C3, hybridoma monoclonal antibody (unpurified supernatant) (antibody, V domains shown, same VH and VL as 4E6; not made as recombinant antibody) VH: EVQLVESGGDLVKPGGSLKLSCAASGFTFSSYAMSWVRQSPEKRLEWVAEISGSGSRDHYTDSVTGRFTVSRDNAKNTLYLEMSSLRSEDTAIYYCARQLTGTDYYGTDYWGQGTSVTVSS VL: DVLMTQIPLSLPVSLGDQASISCRSSQSIVYSNGNTYLEWYLQRPGQSPKLLIYKVSNRFSGVPDRFSGSGSGTDFTLKISRVEAEDLGVYYCFQGSHLPYTFGGGTKLEIK | – | – | – | – | – | – | – | – | – | ~4 | ~4 | no binding (tested: 1000 ng/ml) | no binding
